“And” between values parts separate entries of the source, which are not always exact repeats. Equal entries are not always repeated.

For this experiment, the target named is SARS-CoV-2 (2019-nCoV) Spike Protein (S1+S2 ECD, His tag) (Sino Biological, 40589-V08B1) (SARS-CoV-2), P0DTC2. To be noted: remark: other sources report otherwise.

B1: clone 6D9 (antibody, V domains shown)
VH: EVQLVESGGGLVQPGGSLRLSCAASGFTFTDYDMGWVRQAPGKGPEWVSLISGDSGNTWYDDSVKGRFTISRDNSKNTLYLQMNSLRAEDTAVYYCAKYRGTTKDYWGQGTLVTVSS
With B1, the O.D. is 0.997 O.D. and 0.991 O.D.

B2: clone 5E9 (antibody, V domains shown)
VH: EVQLVESGGGLVQPGGSLRLSCAASGFTFTTYDMGWVRQAPGKGPEWVSLISSGGSNTWYDDSVKGRFTISRDNSKNTLYLQMNSLRAEDTAVYYCAKEKYPYSDCDYWGQGTLVTVSS
As to B2, the O.D. is 0.892 O.D. and 0.904 O.D.
